Laboratory results taken from paper PMC12207370, “Macrocyclic Peptide Probes for Immunomodulatory Protein CD59: Potent Modulators of Bacterial Toxin Activity and Antibody‐Dependent Cytotoxicity” (Angewandte Chemie (International Ed. in English), 2025).

Target: T1, biotinylated CD59 (Homo sapiens, UniProt P13987)
T1 construct: Recombinant soluble human CD59 with an additional C-terminal cysteine residue
T1 sequence (P13987 26-102 limits assumed): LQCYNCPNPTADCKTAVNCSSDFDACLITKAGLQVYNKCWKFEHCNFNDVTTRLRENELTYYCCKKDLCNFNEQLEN
Experiment: mRNA-display cyclic peptide screen against CD59-biotin, NGS abundance after 6th selection round
Settings: for Percentage Seq I: counts normalised by total counts of sample Seq I; for Percentage Seq I / Percentage Seq II: percentage of the pool; for Percentage Seq I / Percentage Seq II / Percentage Average / Percentage of the pool, averaged across the two sequencing samples / Percentage of the pool, Seq I / Percentage of the pool, Seq II: sheet R6; for Percentage Seq II: counts normalised by total counts of sample Seq II; for Percentage Average: percentage of the pool averaged across the two sequencing samples; for Counts Seq I / Counts Seq II: raw NGS counts of peptide sequence; for Counts Seq I: sequencing sample Seq I; for Counts Seq I / Counts Seq II / Counts (raw counts for peptide sequence), Seq I / Counts (raw counts for peptide sequence), Seq II: sheet R6 (6th selection round); for Counts Seq II: sequencing sample Seq II; for Counts (raw counts for peptide sequence), Seq I: NGS sample Seq I; for Counts (raw counts for peptide sequence), Seq II: NGS sample Seq II; for Percentage of the pool, averaged across the two sequencing samples: average of Seq I and Seq II; for Percentage of the pool, Seq I: counts normalised by total counts of NGS sample Seq I; for Percentage of the pool, Seq II: counts normalised by total counts of NGS sample Seq II
In short: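 Peptide–mRNA fusions were made by in vitro translation with a customised PURE express kit. The kit lacked release factor 1 and methionine and was supplemented with […] initiator tRNA carrying N-chloroacetyl-d-tyrosine. Thioether macrocycles were formed, then enriched and amplified over iterative rounds on CD59-biotin immobilised on streptavidin beads. NGS read counts per sequence were recorded after the 6th selection round.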

Sequence	Percentage Seq I	Percentage Seq II	Percentage Average	Counts Seq I	Counts Seq II	Counts (raw counts for peptide sequence), Seq I	Counts (raw counts for peptide sequence), Seq II	Percentage of the pool, averaged across the two sequencing samples	Percentage of the pool, Seq I	Percentage of the pool, Seq II
FIFGNRNWTFG	0.021%	0.021%	0.021%	94	9	–	–	–	–	–
FIRGDSTSVLF	–	–	–	–	–	54	6	0.013%	0.012%	0.014%
FIRGNSTSVLC	–	–	–	–	–	36	5	0.010%	0.008%	0.012%
FIRGNSTSVLF	1.617%	1.838%	1.728%	7076	792	–	–	–	–	–
FIRGNSTSVLFAAAAAAARTGGG	–	–	–	–	–	40	7	0.013%	0.009%	0.016%
FIRGNSTSVLFLRQRQRQLGRGAE	0.060%	0.072%	0.066%	264	31	–	–	–	–	–
FIRGNSTSVLY	–	–	–	–	–	58	8	0.016%	0.013%	0.019%
FIRGNSTSVPF	–	–	–	–	–	46	4	0.010%	0.011%	0.009%
FISGSRSWRKQ	0.036%	0.023%	0.030%	159	10	–	–	–	–	–
FITGNRDHTRG	0.018%	0.026%	0.022%	78	11	–	–	–	–	–
FKYGNSNFVRG	0.035%	0.039%	0.037%	154	17	–	–	–	–	–
FQRGTRSTSWG	0.054%	0.035%	0.045%	238	15	–	–	–	–	–
FQYFGTGIAFG	0.301%	0.325%	0.313%	1316	140	–	–	–	–	–
FRGRNDICTH	–	–	–	–	–	73	8	0.018%	0.017%	0.019%
FTRGNSTSVLF	–	–	–	–	–	51	7	0.014%	0.012%	0.016%
FVAGNRDHTRG	0.023%	0.016%	0.020%	102	7	–	–	–	–	–
FVFGNRHFRTE	0.408%	0.492%	0.450%	1785	212	–	–	–	–	–
FVLGNRHTIVG	–	–	–	–	–	57	6	0.013%	0.013%	0.014%
FVMGNRDHTRG	0.017%	0.023%	0.020%	76	10	–	–	–	–	–
